Kd data for 8 molecules are collected here from paper PMC3906306 (mAbs, 2013).

As a reminder, the Kd is the free concentration of one partner at which half of the binding sites on the other are occupied at equilibrium, for simple one-to-one binding. High values mean weaker binding, low ones tighter binding.

The target of assay [1] is EGFR extracellular domain-Cλ fusion protein (Homo sapiens) (UniProt P00533). Briefly: SPR. Background: In SPR one partner is held on a chip, and binding of the other changes the refractive index at the surface.
In assay [2] the target is EGFR extracellular domain-Cλ fusion protein (Homo sapiens, UniProt P00533). Briefly: SPR.

Regarding hu225 VH:F100cY (antibody), in assay [1], the Kd came to 4 nM. Still for that read-out and setting: to hu225 VH:G33D (antibody) belongs 1.9 nM; to hu225 VH:T57G (antibody), 3.9 nM; to hu225 VH:T97D (antibody), 1.6 nM. The same measure, in the same setting: with hu225 VH:V50L (antibody) the figure was 3.1 nM; with hu225 VH:Y32R (antibody), 6.8 nM; with hu225 VL:A25V (antibody), 3 nM.

B1: hu225 VL:G30Y (antibody, V domains shown)
VH: EVQLVESGGGLVQPGGSLRLSCAASGFSLTNYGVHWVRQAPGKGLEWLGVIWSGGNTDYNTPFTSRLTINKDNSKNTVYLQMNSLRAEDTAVYYCARALTYYDYEFAYWGQGTLVTVSS
VL: DILLTQSPGTLSLSPGERATLSCRASQSIYTNIHWYQQKPGQAPRLLIKYASESISGIPDRFSGSGSGTDFTLTISRLEPEDFAVYYCQQNNNWPTTFGQGTKLEIK
In turn, B1 displayed a Kd in assay [2] of 1.8 nM.
